The results in this text go back to patent US20200102389A1.

Assay [1] deals with recombinant soluble human HLA-G β2M MHC class I complex, monomer (human). Nature of the assay: SPR (Biacore), reference antibody against monomeric wt HLA-G complex.
Assay [2] addresses modified human HLA-G β2M MHC class I complex (HLA-G specific amino acids replaced by HLA-A consensus amino acids) (human). Kind of assay: SPR (Biacore), reference antibody against degrafted HLA-G complex.
Assay [3] has as its target human HLA-G expressed on cells (JEG3 naturally; SKOV3 HLA-G+ and PA-TU-8902 HLA-G+ transfectants) (human) (UniProt P17693). Kind of assay: flow cytometry, JEG3 cells pre-incubated with antibody, competitor ILT2-Fc chimera.

pKd: −log10 of the molar value.

In the case of MEM/G9 (antibody), in assay [1], the negative-log Kd (pKd) is 8.11, the koff came out at 0.0011 s⁻¹, the kon worked out at 150000 M⁻¹ s⁻¹ and the t½ stood at 10 min. In assay [2], this substance gave a pKd of 6.52, a koff of 0.036 s⁻¹, a kon of 120000 M⁻¹ s⁻¹ and a t½ of 0.3 min. Moreover, the Inhibition of ILT2 binding to Jeg3 cells in assay [3] was -27.9%.
Take MEM-G/11 (antibody): in assay [1], the pKd was 7.92, the koff is 0.00085 s⁻¹, the kon turned out to be 74000 M⁻¹ s⁻¹ and the t½ was found to be 14 min. In assay [2], the negative logarithm of the Kd (pKd) was 7.89, the koff stood at 0.0012 s⁻¹, the kon came to 89000 M⁻¹ s⁻¹ and the t½ came out at 10 min.
